Assay results: patent US20250326813A1 (ELPIS BIOPHARMACEUTICALS, published 2025)

T1: human IL2Rα Fc fusion protein (human, UniProt P01589 22-213, limits assumed)
T1 construct: also called CD25; not shown: Fc part
T1 sequence (looked up): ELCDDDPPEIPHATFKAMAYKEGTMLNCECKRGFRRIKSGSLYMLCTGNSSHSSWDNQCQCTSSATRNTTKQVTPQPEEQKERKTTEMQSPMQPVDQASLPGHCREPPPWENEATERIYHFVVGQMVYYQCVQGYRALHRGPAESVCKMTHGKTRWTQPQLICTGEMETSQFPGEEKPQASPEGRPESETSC

T2: human IL2Rβ Fc fusion protein (human, UniProt P14784 27-239)
T2 construct: also called ILR2β; CD122; not shown: Fc part
T2 sequence (looked up): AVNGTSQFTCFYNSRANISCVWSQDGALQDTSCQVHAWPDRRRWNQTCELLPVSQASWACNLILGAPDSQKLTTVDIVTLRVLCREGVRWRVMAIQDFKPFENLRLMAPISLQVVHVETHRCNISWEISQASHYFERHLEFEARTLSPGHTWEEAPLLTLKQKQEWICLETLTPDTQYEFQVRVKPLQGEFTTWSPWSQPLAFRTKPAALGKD

B1: EP564 (clone 2021EP22-E11), E. coli-produced (ligand)
chain: APASSSTKKTQLQLEHLLLDLQMILNGINNYKNPKLTRMLTFKFYMPKKATELKHLQCLEEELKPLEEVLNLAQSKNFHLRFKALIIEINFIVQLLKGSETTFMCEYADETATIVEFLNRWITFSQSIISTLT
B2: EP565 (clone 2021EP22-F10), E. coli-produced (ligand)
chain: APASSSTKKTQLQLEHLLLDLQMILNGINNYKNPKLTRMLTFKFYMPKKATELKHLQCLEEELKPLEEVLNLAQSKNFHLRSRQLISNMNGIILKLKGSETTFMCEYADETATIVEFLNRWITFSQSIISTLT
B3: EP566 (clone 2021EP22-H09), E. coli-produced (ligand)
chain: APASSSTKKTQLQLEHLLLDLQMILNGINNYKNPKLTRMLTFKFYMPKKATELKHLQCLEEELKPLEEVLNLAQSKNFHLRLTHLRNVIGVILVQLKGSETTFMCEYADETATIVEFLNRWITFSQSIISTLT
B4: EP569 (clone 2021EP22-E03), E. coli-produced (ligand)
chain: APASSSTKKTQLQLEHLLLDLQMILNGINNYKNPKLTRMLTFKFYMPKKATELKHLQCLEEELKPLEEVLNLAQSKNFHLRRKESINHMIVVFPVLKGSETTFMCEYADETATIVEFLNRWITFSQSIISTLT
B5: EP570 (clone 2021EP21-E03), E. coli-produced (ligand)
chain: APASSSTKKTQLQLEHLLLDLQMILNGINNYKNPKLTRMLTFKFYMPKKATELKHLQCLEEELKPLEEVLNLAQSKNFHLSSSGLLGDVWVIVLDLKGSETTFMCEYADETATIVEFLNRWITFSQSIISTLT
B6: EP571 (clone 2021EP22-H02), E. coli-produced (ligand)
chain: APASSSTKKTQLQLEHLLLDLQMILNGINNYKNPKLTRMLTFKFYMPKKATELKHLQCLEEELKPLEEVLNLAQSKNFHLRPSELMATMRVPVQALKGSETTFMCEYADETATIVEFLNRWITFSQSIISTLT
B7: EP572 (clone 2021EP21-C03), E. coli-produced (ligand)
chain: APASSSTKKTQLQLEHLLLDLQMILNGINNYKNPKLTRMLTFKFYMPKKATELKHLQCLEEELKPLEEVLNLAQSKNFHLRARDIVRNAKVGVQELKGSETTFMCEYADETATIVEFLNRWITFSQSIISTLT
B8: EP574 (clone 2021EP22-B04), E. coli-produced (ligand)
chain: APASSSTKKTQLQLEHLLLDLQMILNGINNYKNPKLTRMLTFKFYMPKKATELKHLQCLEEELKPLEEVLNLAQSKNFHLFTKDLTSTMQILVLQLKGSETTFMCEYADETATIVEFLNRWITFSQSIISTLT
B9: EP578 (clone 2021EP16-H02), E. coli-produced (ligand)
chain: APASSSTKKTQLQLEHLLLDLQMILNGINNYKNPKLTRMLTFKFYMPKKATELKHLQCLEEELKPLEEVLNLAQSKNFHLTTRDVVMTMARIDLELKGSETTFMCEYADETATIVEFLNRWITFSQSIISTLT
B10: EP579 (clone 2021EP16-E11), E. coli-produced (ligand)
chain: APASSSTKKTQLQLEHLLLDLQMILNGINNYKNPKLTRMLTFKFYMPKKATELKHLQCLEEELKPLEEVLNLAQSKNFHLRPSYIVSYTNVFPLVLKGSETTFMCEYADETATIVEFLNRWITFSQSIISTLT
B11: EP583 (clone 2021EP16-H10), E. coli-produced (ligand)
chain: APASSSTKKTQLQLEHLLLDLQMILNGINNYKNPKLTRMLTFKFYMPKKATELKHLQCLEEELKPLEEVLNLAQSKNFHLSAIDLMSSVKVVVWKLKGSETTFMCEYADETATIVEFLNRWITFSQSIISTLT
B12: EP586 (clone 2021EP16-E07), E. coli-produced (ligand)
chain: APASSSTKKTQLQLEHLLLDLQMILNGINNYKNPKLTRMLTFKFYMPKKATELKHLQCLEEELKPLEEVLNLAQSKNFHLRPRDSRRLISVIVFRLKGSETTFMCEYADETATIVEFLNRWITFSQSIISTLT

Key:
[1] = biological target: T1, human IL2Rα Fc fusion protein; assay: SPR (Biacore T200), receptor captured on Protein A chip, IL2 at 100 nM and 20 nM
Protocol: The assay was run with Biacore T200 control software version 2.0. For each cycle, 1 μg/mL of human IL2Rβ or IL2Rα was captured for 60 seconds at flow rate of 10 μL/min on flow cell 2 in 1× HBSP buffer on Protein A sensor chip. 100 nM and 20 nM of HIS tag purified engineered IL2 mutant was injected onto both reference flow cell 1 and IL2Rβ or IL2Rα captured flow cell 2 for 150 seconds at flow rate of 30 μL/min followed by washing for 300 seconds. The flow cells were then regenerated with Glycine pH 2 for 60 seconds at a flow rate of 30 μL/mins. The kinetics data was analyzed with Biacore T200 evaluation software 3000. The specific binding response unit was derived from subtraction of binding to reference flow cell 1 from target flow cell 2.

[2] = biological target: T1, human IL2Rα Fc fusion protein; assay: ELISA, single concentration, anti-flag detection, E. coli-produced clone
Protocol: (§1) Supernatants containing engineered IL2 mutants were assessed with sandwich ELISA assay to screen for IL2Rα binding. Briefly, 96-well plate was immobilized with human Fc and human IL2Rα, respectively, at a final concentration of 2 μg/mL in 1× PBS in total volume of 50 μL per well. The plate was incubated overnight at 4° C. followed by blocking with 200 μL of superblock per well for 1 hour. 100 μl of supernatant was added to both Fc and IL2Rα immobilized wells and incubated for 1 hour with shaking. The engineered IL2 mutant binding was detected by adding 50 μL of anti-Flag HRP diluted at 1:5000 in 1× PBST. In between each step, the plate was washed three times with 1× PBST in a plate washer. The plate was then developed with 50 μL of TMB substrate for five minutes and stopped by adding 50 μL of 2N sulfuric acid. The plate was read at OD450 nm using a Biotek plate reader and the binding and selectivity was analyzed.
as §1, with “Single clones were next screened for IL2Rβ binding. IL2Rβ binding screening ELISA was developed for the identification of individual” for “Supernatants containing”, “mutant.” for “mutants were assessed with sandwich ELISA assay to screen for IL2Rα binding.”, “IL2Rβ,” for “IL2Rα,”, “IL2Rβ” for “IL2Rα”
(§2) To further triage, the engineered IL2 clones with unique sequences were produced in E. coli. In short, the glycerol stock of each engineered agonist clone was inoculated into TB medium for overnight growth. The next day, cells from the overnight culture were inoculated into TB medium and grown to a cell density of OD₆₀₀ between 0.6-0.8. IPTG was added to a final concentration of 1 mM to induce the expression during culture at 30° C. overnight. The supernatant was collected by centrifugation.

[3] = biological target: T2, human IL2Rβ Fc fusion protein; assay: as above
Protocol: as §1
as §1, with “Single clones were next screened for IL2Rβ binding. IL2Rβ binding screening ELISA was developed for the identification of individual” for “Supernatants containing”, “mutant.” for “mutants were assessed with sandwich ELISA assay to screen for IL2Rα binding.”, “IL2Rβ,” for “IL2Rα,”, “IL2Rβ” for “IL2Rα”
as §2

| Binder | Kd [1] | OD450 nm [2] | OD450 nm [3] |
| --- | --- | --- | --- |
| B1 | 18 nM | 0.086 OD450 | – |
| B2 | 142 nM | 0.105 OD450 | – |
| B3 | 523 nM | 0.251 OD450 | – |
| B4 | 47.8 nM | 0.433 OD450 | – |
| B5 | 21.3 nM | 0.528 OD450 | – |
| B6 | 117 nM | 0.423 OD450 | 0.653 OD450 |
| B7 | 75.5 nM | 0.079 OD450 | 0.143 OD450 |
| B8 | 207 nM | 0.171 OD450 | – |
| B9 | 9340 nM | 0.857 OD450 | – |
| B10 | – | – | 0.611 OD450 |
| B11 | – | 0.749 OD450 | 0.323 OD450 |
| B12 | – | – | 0.505 OD450 |
